Results published in patent publication US20120204273A1, “COMPOSITIONS RELATING TO A PHOSPHOPROTEIN AND METHODS OF USE” (SANFORD-BURNHAM MEDICAL RESEARCH INSTITUTE, priority 2010, published 2012).
Where a chain is given by its changes, count along the chain named.

B1: HA-CDP138-WT: full-length human KIAA0528 (CDP138) tagged with 3HA epitope at the N-terminus, pCMV5 vector (protein)
chain: MPGKLKVKIVAGRHLPVMDRASDLTDAFVEVKFGNTTFKTDVYLKSLNPQWNSEWFKFEVDDEDLQDEPLQITVLDHDTYSANDAIGKVYIDIDPLLYSEAATVISGWFPIYDTIHGIRGEINVVVKVDLFNDLNRFRQSSCGVKFFCTTSIPKCYRAVIIHGFVEELVVNEDPEYQWIDRIRTPRASNEARQRLISLMSGELQRKIGLKVLEMRGNAVVGYLQCFDLEGESGLVVRAIGTACTLDKLSSPAAFLPACNSPSKEMKEIPFNEDPNPNTHSSGPSTPLKNQTYSFSPSKSYSRQSSSSDTDLSLTPKTGMGSGSAGKEGGPFKALLRQQTQSALEQREFPFFTLTAFPPGFLVHVGGVVSARSVKLLDRIHNPDEPETRDAWWAEIRQEIKSHAKALGCHAVVGYSESTSICEEVCILSASGTAAVLNPRFLQDGTVEGCLEQRLEENLPTRCGFCHIPYDELNMPFPAHLTYCYNCRKQKVPDVLFTTIDLPTDATVIGKGCLIQARLCRLKKKAQAEANATAISNLLPFMEYEVHTQLMNKLKLKGMNALFGLRIQITVGENMLMGLASATGVYLAALPTPGGIQIAGKTPNDGSYEQHISHMQKKINDTIAKNKELYEINPPEISEEIIGSPIPEPRQRSRLLRSQSESSDEVTELDLSHGKKDAFVLEIDDTDAMEDVHSLLTDVPPPSGFYSCNTEIMPGINNWTSEIQMFTSVRVIRLSSLNLTNQALNKNFNDLCENLLKSLYFKLRSMIPCCLCHVNFTVSLPEDELIQVTVTAVAITFDKNQALQTTKTPVEKSLQRASTDNEELLQFPLELCSDSLPSHPFPPAKAMTVEKASPVGDGNFRNRSAPPCANSTVGVVKMTPLSFIPGAKITKYLGIINMFFIRETTSLREEGGVSGFLHAFIAEVFAMVRAHVAALGGNAVVSYIMKQCVFMENPNKNQAQCLINVSGDAVVFVRESDLEVVSSQQPTTNCQSSCTEGEVTT
B2: CDP138-5DA: dominant negative mutant CDP138-5DA vector transfected into PC12 cells (protein, UniProt Q86YS7 1-1000, looked up, variant D19A D26A D76A D78A D84A)
C2 domain-containing protein 5: B1 chain with D19A, D26A, D76A, D78A, D84A
B3: CDP138-WT: wild-type CDP138 vector transfected into PC12 cells (protein, UniProt Q86YS7 1-1000, looked up)
C2 domain-containing protein 5: B1 chain

Tests used:
3T3-L1 adipocytes [1] = assay: GSV-PM fusion in live adipocytes (IRAP-pHluorin, TIRF microscopy); type: cell-based, mouse; settings: Akti1/2 5 μM for 1 h, insulin 100 nM 30 min
Source text: FIG. 3, panels A-C, show knockdown of CDP138 in live 3T3-L1 adipocytes inhibits insulin-stimulated membrane fusion between GLUT4 storage vesicles (GSV) and the PM, but not GLUT4-EGFP trafficking to the TIRF zone. (A): Schematic illustration of the molecular probes and TIRF microcopy-based live cell assays for GLUT4 trafficking and GSV-PM fusion. (B) and (C): The effect of CDP138 knockdown on insulin-stimulated IRAP-pHluorin insertion into the PM (B), and accumulation of GLUT4-EGFP in the TIRF zone (C). Adipocytes (day 4) were transfected by electroporation with plasmid DNA encoding IRAP-pHluorin or GLUT4-EGFP, together with either the scrambled siRNA or smartPool siRNA against mouse 5730419I09Rik. Cells were reseeded on glass-bottomed dishes for 72 hrs, serum starved for 2 hr then stimulated with 100 nM insulin for 30 min. Analyses were performed in a cell warmer adapted for a Nikon TiE with fully motorized combined dual laser (488 and 561 nm). Images were acquired every 3 min immediately after addition of insulin and analyzed as described in the Supplementary Experimental Procedures. Perfect focus system and multiple points capture program (NIS Element) were used to acquire images from multiple positively transfected cells at each time point. […]
Total Internal Reflection Fluorescence (TIRF) Microscopy: Nikon (Melville, N.Y.) TI-TIRF-E, which was based on the objective lens method, was used to perform all the TIRF experiments. […] Positively transfected adipocytes were identified, and the insulin-stimulated IRAP vesicle-PM fusion events or GLUT4-EGFP trafficking to the TIRF zone were recorded every 3 min for a 30 min period using Nikon Eclipse-Ti TIRF microscope. […]
(§1) Image Analysis and Quantification: TIRF and wide field fluorescence microscopy were performed using a Nikon inverted microscope (Melville, N.Y.) with a cooled charge-coupled device camera. […]

3T3-L1 adipocytes [2] = assay: myc-GLUT4-GFP translocation to the cell surface; type: cell-based, mouse; settings: for effect on insulin-stimulated myc-GLUT4-GFP translocation to cell surface: fixed cells, Akti1/2 50 μM for 1 hr, insulin 100 nM 30 min
Procedure: FIG. 2, panels A-C show knockdown of CDP138 in 3T3-L1 adipocytes inhibits insulin-stimulated glucose transport (A) and myc-GLUT4-GFP translocation (B), but not endogenous GLUT4 movement to the periphery detected in TIRF zone (C). (A): Differentiated adipocytes at day 5 were transfected with siRNAs against mouse 5730419I09Rik or the scrambled siRNA (Scr) as described earlier (Jiang et al., 2003) for 60 hrs, then serum starved overnight. Cells were then treated with or without insulin (1 nM and 100 nM) for 30 min for the glucose uptake assay, or 15 min for immunoblotting of CDP138, pAkt, Akt and β-actin. Glucose transport data are presented as mean±SD of 4 independent experiments. *P<0.05 vs Scr Insulin (1 nM) group; **P<0.01 vs Scr Insulin (100 nM) group. (B): Day 5 adipocytes were transfected with siRNAs and myc-GLUT4-GFP for 60 hrs and then serum starved overnight. Cells were then treated with insulin (1 nM) for 20 min. Cell surface Myc-GLUT4-GFP was detected with anti-myc monoclonal Ab (9E10) and Alexa Fluor 568-labeled goat anti-mouse IgG in non-permeablized cells. The Myc signal and GFP signal were quantified as previously described (Jiang et al., 2002). Data presented are representative microscopic images and mean±SD of about 160 GFP-positive cells in each group from three independent experiments. **P<0.01 vs Scr Insulin (1 nM) group. […] GLUT4 was detected with a goat anti-GLUT4 Ab and Alexa Fluor 488-conjugated donkey anti-goat Ab in permeabilized cells. Top and middle panels show 100 nm TIRF zone and representative GLUT4 TIRFM images, respectively. Data are mean±SD of 3 independent experiments. **P<0.01 vs Scr Insulin groups.
GLUT4 translocation detection with wide field fluorescence and TIRF microscopy: Both wide field and TIRF microscopy were used to detect myc-GLUT4-GFP translocation to the cell surface as previously described (Jiang et al., 2002) and herein.
To test the effect of RNAi-induced gene specific knockdown of CDP138 or overexpression of CDP138 mutants on GLUT4 translocation, siRNAs or CDP138 constructs were transfected into adipocytes together with myc-GLUT4-GFP by electroporation as previously described (Jiang et al, 2003). […] Cells were washed with cold PBS, fixed with 4% formaldehyde and immunostained. Briefly, for siRNA study, the cell surface Myc-GLUT4-GFP was visualized with mouse anti-Myc Ab (9E10) and AlexaFluoro568-labeled goat anti-mouse secondary Ab (Invitrogen) in PBS containing 1% FBS. After washing, the coverslip were mounted with Prolong antifade reagent (Invitrogen, Eugene Oreg.). Fluorescence microscopy was carried as described below. Then, images were acquired with wide field microscopy as described below. For the study with overexpressed HAtagged CDP138 constructs, the cell surface Myc-GLUT4-GFP was visualized with rabbit anti-Myc Ab (Cell signaling, Inc) and AlexaFluoro568-labeled goat anti-rabbit secondary Ab (InVitrogen) in PBS containing 1% FBS. Cells were further permeabilized with PSB containing 0.5% Tween-20, and HA-tagged protein was detected with a mouse anti-HA epitope primary Ab followed by AlexaFluoro-350-labelled goat anti-mouse IgG. Insulin-induced myc-GLUT4 accumulation (AlexaFluoro-568 signal) within the evanescence excitation field (100 nm from dorsal membrane) in transfected adipocytes was measured with a Nikon Eclipse-Ti microscope equipped with a CoolSNAP HQ2 camera and laser scanning TIRF capacity. Total GLUT4-GFP signals and […] Alexa Fluoro-350 signals were acquired with wide field imaging to identify double-transfected cells. The ratio of myc-GLUT4 signal in the TIRF zone to the total Epi-GFP signal in wide field was used as a measure of GLUT4 translocation to the cell surface.
as §1

CHO-T cells = assay: Cell division of CHO-T cells overexpressing HA-CDP138; type: cell-based
Source text: Large cells bodies with multiple nuclei were formed in HA-tagged CDP138 positive CHO-T cells.
HA-CDP138 positive cell is 3-5 times bigger than HA-negative cells (FIG. 14).

PC12 cells [3] = assay: Survival of differentiated PC12 neuronal cells under serum starvation; type: cell-based; settings: for cell death / survival after 24 hours of starvation / cell death within 14 hours of starvation: transfected 24 h, NGF 24 h, serum starved
Procedure: Cells were serum starved for 6 hours (6 H), 14 hours (14 H) or 24 hours (24 H) before counting the number of cells in two wells.
Cells were serum starved for 24 hours before counting the number of bid surviving differentiated neuronal cells in two wells.
In order to determine the affects of CDP138 of neuronal cell survival, PC12 cells were transfected with wild-type CDP138-WT vector, dominant negative mutant CDP138-5DA vector or an empty vector for 24 h followed by adding NGF (neuron growth factor) for 24 h. Then cells were serum starved for 6 hours, 14 hour, and 24 hour before counting cell number in 2 wells.
(§2) In addition to counting the total number of cells that survived, the number of big surviving differentiated neuronal cells were also assessed following 24 hours of starvation. […] This was a 50% increase in the number of big differentiated cells.

PC12 cells [4] = assay: NGF-induced neurite outgrowth in PC12 cells; type: cell-based
Procedure: FIG. 13, panels A and B, show the expression pattern of CDP138 in various tissues and the effects of overexpressed wild-type and mutant CDP138 in neuronal growth factor (NGF)-induced neurite outgrowth in PC12 cells. A: CDP138 is highly expressed in the brain and distributed in the neurite and synapse of neuronal cells. 30 μg of total protein was assayed for all tissues, except only 15 μg of total protein from brain tissue was assayed in the immunoblotting of panel A. Exemplary protein distribution of CDP138-mCherry in a PC12 cell is also shown. B: Overexpressed CDP138-WT enhances neurite growth, whereas the CDP138-5DA mutant had the opposite effect.
as §2

Molecule	number of big differentiated neuronal cells per well (PC12 cells [3]; 24 hours of starvation)	cell death / survival after 24 hours of starvation (PC12 cells [3])	cell death within 14 hours of starvation (PC12 cells [3])	increase in cell body length (fold over cell body length, NGF-induced neurite outgrowth) (PC12 cells [4])	further results
O=c1[nH]c2ccccc2n1C1CCN(Cc2ccc(-c3nc4cc5nc[nH]c5cc4nc3-c3ccccc3)cc2)CC1 [Akti, reference compound]					effect on insulin-induced GSV-PM membrane fusion (3T3-L1 adipocytes [1]): significantly inhibited; effect on insulin-induced GSV-PM membrane fusion (3T3-L1 adipocytes [1]; listed as Akti1/2): blocks; effect on insulin-stimulated myc-GLUT4-GFP translocation to cell surface (3T3-L1 adipocytes [2]): significantly inhibited; effect on insulin-stimulated myc-GLUT4-GFP translocation to cell surface (3T3-L1 adipocytes [2]; listed as Akti1/2): blocks
B1					size of positive cells relative to HA-negative cells (CHO-T cells): 3-5 times; positive cells with big multiple nuclei (CHO-T cells; three different experiments): about 24.6%; effect of overexpression on insulin-stimulated myc-GLUT4-GFP translocation (TIRF myc / Epi GFP) (3T3-L1 adipocytes [2]; insulin 100 nM, 30 min): did not significantly alter
B2	did not form any	the highest amount of cell death	significant cell death	approximately 1 fold	
B3	approximately 1650 per well	continued to survive	no appreciable cell death	~4 fold	increase in the number of big differentiated cells over empty vector (PC12 cells [3]; 24 hours of starvation): 50%
